In IntAct's records for PubMed 24105263:

B1: Vesicle-associated membrane protein-associated protein A (Homo sapiens), Q9P0L0 (parent)
chain: MASASGAMAKHEQILVLDPPTDLKFKGPFTDVVTTNLKLRNPSDRKVCFKVKTTAPRRYCVRPNSGIIDPGSTVTVSVMLQPFDYDPNEKSKHKFMVQTIFAPPNTSDMEAVWKEAKPDELMDSKLRCVFEMPNENDKLNDMEPSKAVPLNASKQDGPMPKPHSVSLNDTETRKLMEECKRLQGEMMKLSEENRHLRDEGLRLRKVAHSDKPGSTSTASFRDNVTSPLPSLLVVIAAIFIGFFLGKFIL
partner: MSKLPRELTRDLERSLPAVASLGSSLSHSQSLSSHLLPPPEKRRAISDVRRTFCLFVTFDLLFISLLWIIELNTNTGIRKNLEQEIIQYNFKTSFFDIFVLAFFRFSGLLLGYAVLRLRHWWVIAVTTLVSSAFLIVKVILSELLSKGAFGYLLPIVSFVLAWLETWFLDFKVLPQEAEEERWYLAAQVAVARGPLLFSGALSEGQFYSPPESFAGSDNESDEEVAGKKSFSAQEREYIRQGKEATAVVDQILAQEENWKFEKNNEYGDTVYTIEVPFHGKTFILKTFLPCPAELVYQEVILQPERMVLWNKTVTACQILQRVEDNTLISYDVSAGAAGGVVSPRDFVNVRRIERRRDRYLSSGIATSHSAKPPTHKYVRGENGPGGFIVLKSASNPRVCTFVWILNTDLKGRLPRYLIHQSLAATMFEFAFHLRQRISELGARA
B2: Vesicle-associated membrane protein-associated protein A (Homo sapiens), Q9P0L0 (parent)
chain: B1 chain
partner: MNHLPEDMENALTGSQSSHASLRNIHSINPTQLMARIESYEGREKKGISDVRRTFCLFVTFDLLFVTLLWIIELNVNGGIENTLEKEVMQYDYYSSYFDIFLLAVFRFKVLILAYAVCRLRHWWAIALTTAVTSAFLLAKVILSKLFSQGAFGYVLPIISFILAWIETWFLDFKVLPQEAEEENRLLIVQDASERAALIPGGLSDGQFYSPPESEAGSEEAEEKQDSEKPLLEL

Variants of: B1
Settings: with STARD3, Q14849-1

| effect of a mutation on the interaction | Variant |
| --- | --- |
| decreasing interaction strength | MASASGAMAKHEQILVLDPPTDLKFKGPFTDVVTTNLKLRNPSDRKVCFKVKTTAPRRYCVRPNSGIIDPGSTVTVSVMLQPFDYDPNEKSKHDFDVQTIFAPPNTSDMEAVWKEAKPDELMDSKLRCVFEMPNENDKLNDMEPSKAVPLNASKQDGPMPKPHSVSLNDTETRKLMEECKRLQGEMMKLSEENRHLRDEGLRLRKVAHSDKPGSTSTASFRDNVTSPLPSLLVVIAAIFIGFFLGKFIL [K94D;M96D] |

Variants of: B2
Settings: with STARD3NL

| effect of a mutation on the interaction | Variant |
| --- | --- |
| decreasing interaction strength | MASASGAMAKHEQILVLDPPTDLKFKGPFTDVVTTNLKLRNPSDRKVCFKVKTTAPRRYCVRPNSGIIDPGSTVTVSVMLQPFDYDPNEKSKHDFDVQTIFAPPNTSDMEAVWKEAKPDELMDSKLRCVFEMPNENDKLNDMEPSKAVPLNASKQDGPMPKPHSVSLNDTETRKLMEECKRLQGEMMKLSEENRHLRDEGLRLRKVAHSDKPGSTSTASFRDNVTSPLPSLLVVIAAIFIGFFLGKFIL [K94D;M96D] |
